In article PMC4948116:

Columns and labels:
Assay in all cases: SPR
[1] = target: Human recombinant CD16A-158F (human) (UniProt P08637)
[2] = target: Human recombinant CD32B (human) (UniProt P31994)
[3] = target: Human recombinant CD16B (human) (UniProt O75015)
[4] = target: CD32A-131H (human) (UniProt P12318)
[5] = target: Human recombinant CD16A-158V (human)
[6] = target: CD32A-131R (human)

Chain of UniProt P08637 (P08637 17-208): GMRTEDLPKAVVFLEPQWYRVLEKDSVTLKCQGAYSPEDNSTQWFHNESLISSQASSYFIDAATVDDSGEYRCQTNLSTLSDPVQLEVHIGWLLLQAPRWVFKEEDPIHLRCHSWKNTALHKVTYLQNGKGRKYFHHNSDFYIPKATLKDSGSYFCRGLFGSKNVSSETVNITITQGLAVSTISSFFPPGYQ
Chain of UniProt P31994 (P31994 43-217): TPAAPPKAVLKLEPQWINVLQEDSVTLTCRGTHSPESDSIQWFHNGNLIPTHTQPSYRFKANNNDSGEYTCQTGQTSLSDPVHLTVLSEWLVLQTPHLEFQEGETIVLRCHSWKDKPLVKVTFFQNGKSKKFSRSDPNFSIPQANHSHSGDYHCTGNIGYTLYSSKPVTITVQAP
Chain of UniProt P12318 (P12318 34-317): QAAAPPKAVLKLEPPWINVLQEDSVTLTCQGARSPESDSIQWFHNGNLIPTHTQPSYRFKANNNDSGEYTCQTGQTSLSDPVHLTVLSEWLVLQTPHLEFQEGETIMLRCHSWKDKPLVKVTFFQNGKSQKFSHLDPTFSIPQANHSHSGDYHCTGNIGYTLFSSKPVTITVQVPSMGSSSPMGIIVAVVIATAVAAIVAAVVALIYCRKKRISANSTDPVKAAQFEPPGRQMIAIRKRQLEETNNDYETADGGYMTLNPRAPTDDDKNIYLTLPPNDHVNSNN
Chain of UniProt O75015 (O75015 17-200): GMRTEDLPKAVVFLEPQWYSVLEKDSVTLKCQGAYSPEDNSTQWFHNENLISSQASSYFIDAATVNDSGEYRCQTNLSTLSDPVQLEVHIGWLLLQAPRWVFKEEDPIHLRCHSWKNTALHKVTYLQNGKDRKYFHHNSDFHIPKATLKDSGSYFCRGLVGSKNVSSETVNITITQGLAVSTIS

| affinity relative to hu3F8-IgG1 on CD16A(158F) [1] [fold] | Kd [2] [nM] | Kd [3] [nM] | Kd [4] [nM] | Kd [5] [nM] | ka1 (two-state reaction, first step) [5] [M⁻¹ s⁻¹] | kd1 (two-state reaction, first step) [5] [s⁻¹] | kd2 (two-state reaction, second step) [5] [s⁻¹] | Kd [1] [nM] | Kd [6] [nM] | Substance |
| --- | --- | --- | --- | --- | --- | --- | --- | --- | --- | --- |
| 16 | – | – | – | – | – | – | – | – | – | hu3F8-IgG1-DEL (antibody) |
| – | 2400 | 2030 | 541 | 726 | 134000 | 0.212 | 0.00897 | 2090 | 786 | hu3F8-IgG1 (antibody) |
